This is an account of results in the RNAGym collection of RNA variant scans (doi:10.1093/nar/gkz1192).

B1: CPEB3 Ribozyme (parent)
chain: UAACAGGGGGCCACAGCAGAAGCGUUCACGUCGCAGCCCCUGUCAGAUUCUGGUGAAUCUGCGAAUUCUGCUGUAUAUCUC

Variants of B1 are the subject of the series. The series is described as follows: self-cleavage, relative activity (ratio to wild type); higher = more cleavage; in vitro, sequencing. The method, boiled down:
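Barcoded CPEB3 ribozyme mutants, produced by rounds of error-prone PCR, self-cleaved while being transcribed with T7 RNA polymerase for 5 hours at 37°C and during a subsequent 15 min DNase I step before EDTA was added. Sequencing of template-switched cDNA on Illumina gave cleaved and total reads, and DNA sequencing assigned barcodes to variants. Each variant's relative activity is its cleaved/total read fraction divided by the unmutated ribozyme's fraction, averaged across three batches. A variant needed a minimum of 5 reads.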
For the variant C29U A64G, the self-cleavage worked out at 0.23. As to A45U A57G, the self-cleavage was 0.31. Turning to A21C U74C, the self-cleavage is 0.08. Consider C32U U74C, for which the self-cleavage is 0.38. Then A3C U67C, with 0.33; and U25C C38G, with 0.19; and G9C A45U, with 0.13. With C4A U72C, the self-cleavage came out at 1.22. Regarding U26C C68A, the self-cleavage came out at 0.28. Then U72A A75C, with 0.78; and C62A U69G, with 0.33. With C4A G30A the figure was 0.39; with A13G A15C, 0.81. Then A13G A15U, with 0.43; and A5C G9A, with 0.41. Turning to U51G U76C, the self-cleavage was 1.17. As for A57C A64G, the self-cleavage is 0.34. Take U25G A65U: the self-cleavage amounted to 0.07. Take A3U U26C: the self-cleavage is 0.64. Turning to U60C A64C, the self-cleavage stood at 0.61. G7A A77U: the self-cleavage is 0.26. For G9C G30A, the self-cleavage turned out to be 0.1. Then G16A U54C, with 0.66; and A35U A57U, with 0.2; and A15G U80A, with 1.07. As to U25G U51A, the self-cleavage was found to be 0.3.

For G8U U80A, the self-cleavage turned out to be 0.2.

As to A15G C38A, the self-cleavage was determined as 0.42. As for C34U U80C, the self-cleavage amounted to 0.58. Then A15U U25C, with 0.25; and A35G U78C, with 1.3.

As to G8U U41C, the self-cleavage was found to be 0.12. With A2G U58C the figure was 0.25; with A13C U76C, 0.75. Then A20U, with 0.33; and U66C U78C, with 0.36; and A15U G30C, with 0.15. Consider A2G A5C, for which the self-cleavage is 0.94. Consider G9C U60C, for which the self-cleavage was 0.25.

Regarding A47U U51A, the self-cleavage is 0.4. Then A15U A18U, with 0.25; and A35C A65G, with 0.34; and A45C A56U, with 0.25. With U25A U66C, the self-cleavage turned out to be 0.23. Regarding G9U A56U, the self-cleavage amounted to 0.29. For A20G U31C, the self-cleavage turned out to be 0.56. Take U26C A35C: the self-cleavage was 0.32. A15G U78A: the self-cleavage is 0.96. Consider U26A C32G, for which the self-cleavage was 0.13. Consider U51C A77G, for which the self-cleavage came to 1.08.

On to G19A C32A, for which the self-cleavage came out at 0.08. For C34A A65G, the self-cleavage was found to be 0.26. With A18C U69A the figure was 0.52.

U67C G70U: the self-cleavage is 0.26. As for U54G U66C, the self-cleavage came out at 0.28. With C12G G24A the figure was 0.19; with A56G C68A, 0.32; with G42C U48A, 0.13. Take A18G U25A: the self-cleavage is 0.38. On to C37G C40A, for which the self-cleavage worked out at 0.29. As for C29A A64U, the self-cleavage was determined as 0.27. With A15G C81A, the self-cleavage worked out at 1.16. Consider C4U A64U, for which the self-cleavage is 0.7. Consider C50U A56U, for which the self-cleavage is 0.82.

For G33A A77G, the self-cleavage worked out at 0.18. With C81A the figure was 1.05; with C50U U76A, 0.94. Regarding A5G U78A, the self-cleavage is 0.88. Then C12U U60C, with 0.95. Take A13U C39U: the self-cleavage amounted to 1.18. With A47G U76G, the self-cleavage is 1.16. As to G53U U76C, the self-cleavage was 1.22. A3G U76C: the self-cleavage is 1.15. For C11G A65G, the self-cleavage is 0.21. In the case of U26C U58A, the self-cleavage came to 0.15.

For A18G A28G, the self-cleavage is 0.33. Then G52C U72C, with 1.24; and C29U U72G, with 0.53; and C11U A77U, with 0.47.

Regarding A28C U72G, the self-cleavage was found to be 0.4. On to G24C C29A, for which the self-cleavage is 0.23. Then A65U A77G, with 0.2.

For the variant G10A U26C, the self-cleavage stood at 0.22. With C37A C38A the figure was 0.27. In the case of A3U G10A, the self-cleavage came out at 0.1. Regarding C23A U58A, the self-cleavage was found to be 0.18. As for U49G G63A, the self-cleavage is 0.28.

With A3G C59U, the self-cleavage was 0.74. With C14A U26C, the self-cleavage was 0.63. With G42A A47G the figure was 0.42. U25C G61A: the self-cleavage amounted to 0.15. As for U26A U69G, the self-cleavage came to 0.48. For U1C C32A, the self-cleavage is 0.26.

Take A5G C38A: the self-cleavage was found to be 0.44. Consider A35U C59U, for which the self-cleavage was 0.29.

In the case of G24A A47G, the self-cleavage was 0.27. Regarding C62U U78A, the self-cleavage stood at 0.28.

Consider G33C U51A, for which the self-cleavage is 0.15.

For the variant U58C U78G, the self-cleavage turned out to be 0.44. For A5U U74C, the self-cleavage is 1.14. In the case of A15C U51C, the self-cleavage was 0.68. Consider A47U U80A, for which the self-cleavage amounted to 0.51. Then G6U U69C, with 0.22; and U1C U66C, with 0.39. A15U U80A: the self-cleavage was determined as 1.01. Regarding U43C U76A, the self-cleavage is 0.89. On to A35G U60C, for which the self-cleavage was 1.03. In the case of U60A C62U, the self-cleavage was 0.26. In the case of G6U U31A, the self-cleavage is 0.17. Then A47G U49G, with 0.47. C32U A35C: the self-cleavage turned out to be 0.18. For U25C A56G, the self-cleavage stood at 0.25. Then A18U C39A, with 0.24. On to U43C C71U, for which the self-cleavage was found to be 0.36. With A35C C40A the figure was 0.6; with U60A G63A, 0.61.

On to A15U C34G, for which the self-cleavage is 0.27. For the variant C11U G61C, the self-cleavage worked out at 0.11.

On to G30U, for which the self-cleavage was 0.25. With G16A U72A, the self-cleavage was determined as 0.36. As to A13C U80A, the self-cleavage was 0.92. Take G33U U60C: the self-cleavage stood at 0.11. For A45U U60A, the self-cleavage worked out at 1.09.

Consider U58A A75U, for which the self-cleavage amounted to 0.29. With U1C G16A the figure was 0.08; with A35G A75C, 1.25. For C17G A65G, the self-cleavage came to 0.25.

A3C U51A: the self-cleavage is 1.19. C32G U67C: the self-cleavage came to 0.09. With C40U A56C the figure was 0.32. Then A20U C79G, with 0.37; and C4U C12U, with 1.21. Regarding C27U A64U, the self-cleavage was found to be 0.26. Consider C50U U67C, for which the self-cleavage worked out at 0.31. Consider C40A U54A, for which the self-cleavage was 0.29. Consider A13U A64G, for which the self-cleavage was determined as 1.09. Turning to C11U A45U, the self-cleavage was 0.27. As to A64U U72C, the self-cleavage is 0.5. Then G53U U69C, with 0.59; and A13U A15G, with 0.69; and A57U U58C, with 0.18. Consider A2G U41A, for which the self-cleavage was determined as 0.42.

Regarding C29U C62U, the self-cleavage was determined as 0.21. With U72A C81U, the self-cleavage is 1.11. Take C37G U80G: the self-cleavage turned out to be 1.16. Regarding U54A U58C, the self-cleavage worked out at 0.69.

Take U1C A45G: the self-cleavage amounted to 0.81. U31C U67C: the self-cleavage was determined as 0.26. As to U26A U80A, the self-cleavage was found to be 0.96.

In the case of A20G C79G, the self-cleavage stood at 1.09. A56G C79G: the self-cleavage came to 1.16. As for G19U A45G, the self-cleavage was determined as 0.08. Consider A57U U72C, for which the self-cleavage came to 0.89. Turning to G73A A75G, the self-cleavage was determined as 1.19. With C62G A64U, the self-cleavage was 0.32. For the variant A13G G30C, the self-cleavage worked out at 0.16. In the case of A65G G73A, the self-cleavage is 1.06. As to A5C U69A, the self-cleavage is 0.67.

Regarding G8A G63C, the self-cleavage was 0.19. As to U60C U74G, the self-cleavage stood at 0.66. As to C23A A45C, the self-cleavage amounted to 0.34. On to G7A G55A, for which the self-cleavage stood at 0.15. Then G6A A75G, with 0.27. With G52A, the self-cleavage worked out at 1.14. Regarding G22U U31A, the self-cleavage was 0.32. A13U U48C: the self-cleavage turned out to be 0.77.

With G53U U58C, the self-cleavage came to 1.08.
